Results from the supplement of paper PMC10567573.

B1: TRIM14 (parent)
chain: REQADSCREQLDIMNDLSNRVWSI

Variants of: B1
Assay: protein stability index of a GFP-peptide fusion (GPS, HEK-293T) (PSI 1-6); higher = more stable
Conditions: c terminus: a fixed tail appended
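Note: lentivirally expressed fusions sorted by FACS into six bins by GFP to DsRed ratio, PSI derived from sequencing read proportions per bin multiplied by bin number.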

Variant	protein stability index
REQADLCREQLDIMNDLSNRVWSI	1.93
REQADRCREQLDIMNDLSNRVWSI	1.86
REQADDCREQLDIMNDLSNRVWSI	3.4
REQADVCREQLDIMNDLSNRVWSI	1.85
REQADACREQLDIMNDLSNRVWSI	2.45
REQADICREQLDIMNDLSNRVWSI	2.35
REQADQCREQLDIMNDLSNRVWSI	2.21
REQADKCREQLDIMNDLSNRVWSI	1.78
REQADTCREQLDIMNDLSNRVWSI	1.6
REQADMCREQLDIMNDLSNRVWSI	1.93
REQADYCREQLDIMNDLSNRVWSI	2.06
REQADPCREQLDIMNDLSNRVWSI	2.35
REQADHCREQLDIMNDLSNRVWSI	2.41
REQADGCREQLDIMNDLSNRVWSI	2.42
REQADFCREQLDIMNDLSNRVWSI	1.91
REQADWCREQLDIMNDLSNRVWSI	2
REQADNCREQLDIMNDLSNRVWSI	2.68
REQADECREQLDIMNDLSNRVWSI	2.77
REQADCCREQLDIMNDLSNRVWSI	2.01
REQAVSCREQLDIMNDLSNRVWSI	2.09
REQAPSCREQLDIMNDLSNRVWSI	2.03
REQAESCREQLDIMNDLSNRVWSI	2.15
REQACSCREQLDIMNDLSNRVWSI	1.59
REQATSCREQLDIMNDLSNRVWSI	1.99

Variant	protein stability index
REQAASCREQLDIMNDLSNRVWSI	1.95
REQAWSCREQLDIMNDLSNRVWSI	2.21
REQAKSCREQLDIMNDLSNRVWSI	3.1
REQAHSCREQLDIMNDLSNRVWSI	2.23
REQAMSCREQLDIMNDLSNRVWSI	2.1
REQAGSCREQLDIMNDLSNRVWSI	1.55
REQARSCREQLDIMNDLSNRVWSI	3.62
REQAFSCREQLDIMNDLSNRVWSI	1.55
REQAYSCREQLDIMNDLSNRVWSI	1.2
REQAQSCREQLDIMNDLSNRVWSI	2.14
REQASSCREQLDIMNDLSNRVWSI	1.6
REQAISCREQLDIMNDLSNRVWSI	2.84
REQANSCREQLDIMNDLSNRVWSI	2.88
REQALSCREQLDIMNDLSNRVWSI	3.46
RETADSCREQLDIMNDLSNRVWSI	2.11
RERADSCREQLDIMNDLSNRVWSI	2.42
REWADSCREQLDIMNDLSNRVWSI	1.88
RESADSCREQLDIMNDLSNRVWSI	1.77
REPADSCREQLDIMNDLSNRVWSI	2.15
REVADSCREQLDIMNDLSNRVWSI	1.24
REYADSCREQLDIMNDLSNRVWSI	2.23
REQADSIREQLDIMNDLSNRVWSI	2.12
REQADSLREQLDIMNDLSNRVWSI	2.27
REQADSFREQLDIMNDLSNRVWSI	2.21

Variant	protein stability index
REQADSTREQLDIMNDLSNRVWSI	3.04
REQADSNREQLDIMNDLSNRVWSI	3.52
REQADSWREQLDIMNDLSNRVWSI	2.23
REQADSSREQLDIMNDLSNRVWSI	3.21
REQADSKREQLDIMNDLSNRVWSI	3
REQADSGREQLDIMNDLSNRVWSI	3.05
REQADSPREQLDIMNDLSNRVWSI	2.74
REQADSYREQLDIMNDLSNRVWSI	2.2
REQADSVREQLDIMNDLSNRVWSI	2.76
REQADSRREQLDIMNDLSNRVWSI	3.42
REQADSHREQLDIMNDLSNRVWSI	3.02
REQADSQREQLDIMNDLSNRVWSI	4.24
REQADSDREQLDIMNDLSNRVWSI	3.5
REQADSAREQLDIMNDLSNRVWSI	2.86
REQADSEREQLDIMNDLSNRVWSI	3.96
REQADSMREQLDIMNDLSNRVWSI	2.52
REQADSCREQLDNMNDLSNRVWSI	2.92
REQADSCREQLDFMNDLSNRVWSI	1.9
REQADSCREQLDMMNDLSNRVWSI	2.63
REQADSCREQLDDMNDLSNRVWSI	3.37
REQADSCREQLDAMNDLSNRVWSI	2.45
REQADSCREQLDKMNDLSNRVWSI	2.19
REQADSCREQLDLMNDLSNRVWSI	1.72
REQADSCREQLDQMNDLSNRVWSI	2.8

Variant	protein stability index
REQADSCREQLDPMNDLSNRVWSI	2.87
REQADSCREQLDGMNDLSNRVWSI	2.69
REQADSCREQLDCMNDLSNRVWSI	2.93
REQADSCREQLDEMNDLSNRVWSI	3.46
REQADSCREQLDHMNDLSNRVWSI	2.88
REQADSCREQDDIMNDLSNRVWSI	3.08
REQADSCREQSDIMNDLSNRVWSI	3.03
REQADSCREQCDIMNDLSNRVWSI	2.17
REQADSCREQADIMNDLSNRVWSI	2.1
REQADSCREQGDIMNDLSNRVWSI	2.62
REQADSCREQQDIMNDLSNRVWSI	3.17
REQADSCREQYDIMNDLSNRVWSI	1.73
REQADSCREQFDIMNDLSNRVWSI	1.87
REQADSCREQVDIMNDLSNRVWSI	2.19
REQADSCREQHDIMNDLSNRVWSI	2.24
REQADSCREQWDIMNDLSNRVWSI	1.46
REQADSCREQMDIMNDLSNRVWSI	2.13
REQADSCREQRDIMNDLSNRVWSI	3.11
REQADSCREQKDIMNDLSNRVWSI	2.38
REQADSCREQTDIMNDLSNRVWSI	3.1
REQADSCREQPDIMNDLSNRVWSI	2.53
REQADSCREQEDIMNDLSNRVWSI	3.9
REQADSCREQNDIMNDLSNRVWSI	2.36
REQADSCREQIDIMNDLSNRVWSI	2.53

Variant	protein stability index
REQADSCWEQLDIMNDLSNRVWSI	2.53
REQADSCVEQLDIMNDLSNRVWSI	1.8
REQADSCLEQLDIMNDLSNRVWSI	1.89
REQADSCPEQLDIMNDLSNRVWSI	3.02
REQADSCTEQLDIMNDLSNRVWSI	2.44
REQADSCMEQLDIMNDLSNRVWSI	2.17
REQADSCKEQLDIMNDLSNRVWSI	2.29
REQADSCDEQLDIMNDLSNRVWSI	3.4
REQADSCFEQLDIMNDLSNRVWSI	1.6
REQADSCGEQLDIMNDLSNRVWSI	2.68
REQADSCCEQLDIMNDLSNRVWSI	2.3
REQADSCSEQLDIMNDLSNRVWSI	2.41
REQADSCQEQLDIMNDLSNRVWSI	2.64
REQADSCIEQLDIMNDLSNRVWSI	1.79
REQADSCAEQLDIMNDLSNRVWSI	2.47
REQADSCNEQLDIMNDLSNRVWSI	2.51
REQADSCHEQLDIMNDLSNRVWSI	2.61
REQADSCEEQLDIMNDLSNRVWSI	3.19
REQADSCYEQLDIMNDLSNRVWSI	1.54
REQADSCREQLNIMNDLSNRVWSI	1.6
REQADSCREQLAIMNDLSNRVWSI	2.05
REQADSCREQLKIMNDLSNRVWSI	1.92
REQADSCREQLEIMNDLSNRVWSI	2.31
REQADSCREQLRIMNDLSNRVWSI	2.06

Variant	protein stability index
REQADSCREQLIIMNDLSNRVWSI	2.24
REQADSCREQLCIMNDLSNRVWSI	1.84
REQADSCREQLQIMNDLSNRVWSI	1.59
REQADSCREQLFIMNDLSNRVWSI	2.71
REQADSCREQLTIMNDLSNRVWSI	2.53
REQADSCREQLWIMNDLSNRVWSI	2.21
REQADSCREQLHIMNDLSNRVWSI	2.05
REQADSCREQLVIMNDLSNRVWSI	1.9
REQADSCREQLMIMNDLSNRVWSI	1.43
REQADSCREQLYIMNDLSNRVWSI	1.96
REQADSCREQLGIMNDLSNRVWSI	1.77
REQADSCREQLPIMNDLSNRVWSI	2.31
REQADSCREQLSIMNDLSNRVWSI	2.21
REQQDSCREQLDIMNDLSNRVWSI	2.25
REQRDSCREQLDIMNDLSNRVWSI	2.31
REQLDSCREQLDIMNDLSNRVWSI	2.57
REQWDSCREQLDIMNDLSNRVWSI	2.34
REQGDSCREQLDIMNDLSNRVWSI	2.59
REQHDSCREQLDIMNDLSNRVWSI	2
REQSDSCREQLDIMNDLSNRVWSI	2.27
REQFDSCREQLDIMNDLSNRVWSI	1.59
REQVDSCREQLDIMNDLSNRVWSI	2.36
REQEDSCREQLDIMNDLSNRVWSI	2.52
REQTDSCREQLDIMNDLSNRVWSI	2.93

Variant	protein stability index
REQMDSCREQLDIMNDLSNRVWSI	3.03
REQDDSCREQLDIMNDLSNRVWSI	2.5
REQIDSCREQLDIMNDLSNRVWSI	2.29
REQPDSCREQLDIMNDLSNRVWSI	1.76
REQNDSCREQLDIMNDLSNRVWSI	2.66
REQKDSCREQLDIMNDLSNRVWSI	2.52
REQCDSCREQLDIMNDLSNRVWSI	1.81
REQYDSCREQLDIMNDLSNRVWSI	2.21
REQADSCRAQLDIMNDLSNRVWSI	2.03
REQADSCRWQLDIMNDLSNRVWSI	3.53
REQADSCRHQLDIMNDLSNRVWSI	1.48
REQADSCRTQLDIMNDLSNRVWSI	1.95
REQADSCRYQLDIMNDLSNRVWSI	3.54
REQADSCRIQLDIMNDLSNRVWSI	2.44
REQADSCRQQLDIMNDLSNRVWSI	1.53
REQADSCRMQLDIMNDLSNRVWSI	2.66
REQADSCRFQLDIMNDLSNRVWSI	2.81
REQADSCRSQLDIMNDLSNRVWSI	2.6
REQADSCRGQLDIMNDLSNRVWSI	1.38
REQADSCRNQLDIMNDLSNRVWSI	2.05
REQADSCRPQLDIMNDLSNRVWSI	2.3
REQADSCRRQLDIMNDLSNRVWSI	1.85
REQADSCRDQLDIMNDLSNRVWSI	2.77
REQADSCRLQLDIMNDLSNRVWSI	2.75

Variant	protein stability index
REQADSCRKQLDIMNDLSNRVWSI	1.66
REQADSCRCQLDIMNDLSNRVWSI	1.84
REQADSCREGLDIMNDLSNRVWSI	2.18
REQADSCRECLDIMNDLSNRVWSI	2.24
REQADSCREWLDIMNDLSNRVWSI	1.98
REQADSCREILDIMNDLSNRVWSI	2.63
REQADSCREALDIMNDLSNRVWSI	1.74
REQADSCRESLDIMNDLSNRVWSI	1.87
REQADSCREELDIMNDLSNRVWSI	2.21
REQADSCRENLDIMNDLSNRVWSI	2.24
REQADSCREVLDIMNDLSNRVWSI	1.57
REQADSCREFLDIMNDLSNRVWSI	2.18
REQADSCREMLDIMNDLSNRVWSI	1.81
REQADSCREKLDIMNDLSNRVWSI	2.16
REQADSCREYLDIMNDLSNRVWSI	2
REQADSCREDLDIMNDLSNRVWSI	2.74
REQADSCRERLDIMNDLSNRVWSI	2.38
REQADSCREHLDIMNDLSNRVWSI	2.03
REQADSCREPLDIMNDLSNRVWSI	2
REQADSCRETLDIMNDLSNRVWSI	2.39
